From patent US20230287088A1 (BIONTECH, published 2023)
Numbering of substitutions follows the chain as printed. Like-named read-outs stand apart in the source and are kept apart here.

B1: P043.A.00109.B12 (antibody, V domains shown)
VH: QSLEESGGGLVKPEGSLTLTCKASGFDLNTYYYMCWVRQAPGKGLEWIACIATSDSGHTAYASWARGRFTISKTSSTTVTLQMTGLTAADTATYFCARGGRSVGDGVDLWGPGTLVTVSS
VL: DIVMTQTPASVEAAVGGTVTIKCQASQSISSWLAWYQQKPGQPPKLLIYDASDLASGVPSRFKGSGSGTEFTLTISDLESADAATYYCQSYLYVESGSHGFGFGGGTEVVVR
notes: also called 468; protein sample ID 468
B2: P043.A.00017.E07 (protein sample ID 449) (antibody, V domains shown)
VH: QSVEESGGRLVTPGTPLTLTCTVSGFSLSSYAMSWVRQAPGKGLEWIGIISSSGSTYYASWAKGRFTISKTSTTVDLKITSPTTEDTATYFCARAMYPGYSTGVYNIWGPGTLVTVSL
VL: AIQMTQSPSSLAASVGDTVTITCKASEDIGYELNWYQQKLGIAPKLLIYGANTLESGVPSRFSGSGSETDYTLTISSVQAEDAGIYYCQQGYNTPNTFGAGTKVEIK
B3: P043.A.00020.D06 (protein sample ID 444) (antibody, V domains shown)
VH: QSVEESGGRLVTPGTPLTLTCTVSGFSLSSYAMNWVRQAPGKGLEWIGIISSSGSTYYASWAKGRFTISKTSTTVDLKITSPTTEDTATYFCARVGAGYAGYGYDNYYGMDPWGPGTLVTVSS
VL: B2 VL with E32G, N93S, N96L
B4: P043.A.00023.A08 (protein sample ID 446) (antibody, V domains shown)
VH: QSVEESGGRLVTPGTPLTLTCTVSGFSLSKYAMSWVRQAPGKGLEWIGIISSGGSTYYASWAKGRFTISKTSSTTVDLKITSPTTEDTATYFCARAGYPGYSPHYFNIWGPGTLVTVSL
VL: B2 VL with S63T, N93S, N96P
B5: P043.A.00092.C12 (antibody, V domains shown)
VH: QEELKETGGGLVQPGGSLTLSCKASGFDFSSYYMSWVRQAPGKGLEWIGVIYASKGSTDYASWVNGRFTISSDNAQNTVDLQMNSLTAADTATYYCARSKRFYTYGYAGYAYAHYYYGMDLWGPGTLVTVSS
VL: B2 VL with E32G, N52D, N93S, N96L
notes: also called 472; protein sample ID 472
B6: P043.A.00097.B02 (antibody, V domains shown)
VH: QELVESGGGLVQAGESLKLSCKASGIDFSSYGISWVRQAPGKGLEWIAYIYPGFGITNYANSVKGRFTISSDNAQNTVFLQMTSLTASDTATYFCTRAYASSSGYYIHYFNLWGPGTLVTVSS
VL: B2 VL with E32G, G91A, N93S, N96L

How the values were obtained:
[1] = molecular target: T1, Human-Fc-tagged SARS-CoV2 S1 recombinant protein (Sino Biologicals) (SARS-CoV-2, UniProt P0DTC2 16-685); test: ELISA on coated S1-hFc, 0.85 µg/ml; rabbit antibody in B-cell supernatant
T1 construct: domain: S1; Bought reagent

[2] = molecular target: T2, Mouse-Fc-tagged SARS-CoV2 S1-RBD (Sino Biologicals) recombinant protein (SARS-CoV-2, UniProt P0DTC2 319-541); test: ELISA on coated S1-RBD-mFc
T2 construct: domain: S1-RBD

[3] = molecular target: T2, Mouse-Fc-tagged SARS-CoV2 S1-RBD (Sino …); test: competition ELISA: blocks S1-RBD-mFc binding to coated ACE-2 ECD
[4] = molecular target: T1, Human-Fc-tagged SARS-CoV2 S1 …
[5] = molecular target: T2, Mouse-Fc-tagged SARS-CoV2 S1-RBD (Sino …)
[6] = molecular target: T2, Mouse-Fc-tagged SARS-CoV2 S1-RBD (Sino …); test: SPR, S1-RBD-mFc captured via anti-mouse-Fc antibody, 1:1 model
[7] = molecular target: T2, Mouse-Fc-tagged SARS-CoV2 S1-RBD (Sino …); test: ELISA on coated S1-RBD-mFc; remark: listed apart in the source
[8] = molecular target: T1, Human-Fc-tagged SARS-CoV2 S1 …; test: ELISA on coated S1-hFc, 3 µg/ml; rabbit antibody in B-cell supernatant
[9] = molecular target: T3, His-tagged SARS-CoV S1-RBD (Sino Biologicals) (SARS-CoV, UniProt P59594 306-527); test: ELISA on coated His-tagged SARS-CoV S1-RBD [D00020 Figure 8A continued]
T3 construct: domain: S1-RBD; Bought reagent

[10] = molecular target: T2, Mouse-Fc-tagged SARS-CoV2 S1-RBD (Sino …); test: competition ELISA: blocks S1-RBD-mFc binding to coated ACE-2 ECD; remark: listed apart in the source

Row | Binder | EC50 [1] | EC50 [2] | IC50 [3] | IC50 [4] | IC50 [5] | Kd [6] | koff [6] | kon [6] | EC50 [7] | EC50 [8] | binding result [9] | IC50 [10] | IC90 [10]
1 | B1 | 18 ng/mL | 5.6 ng/mL | 21.6 ng/mL | 18.1 ng/mL |  |  |  |  |  |  |  |  | 
2 | B2 |  | 8.8 ng/mL | 53.9 ng/mL | 3.6 ng/mL | 50.8 ng/mL | 0.308 nM | 0.000239 s⁻¹ | 780000 M⁻¹ s⁻¹ | 6.5 ng/mL | 5.3 ng/mL | no binding (tested: 1000 ng/ml) |  | 
3 | B3 |  | 7.3 ng/mL | 60.3 ng/mL | 7.2 ng/mL | 65.1 ng/mL | 1.36 nM | 0.00032 s⁻¹ | 236000 M⁻¹ s⁻¹ | 8.2 ng/mL | 5.7 ng/mL | no binding (tested: 1000 ng/ml) |  | 
4 | B4 |  | 8.1 ng/mL | 37.3 ng/mL | 4.7 ng/mL |  | 0.115 nM | 0.000243 s⁻¹ | 2.12e+06 M⁻¹ s⁻¹ | 7 ng/mL | 8.5 ng/mL | no binding (tested: 1000 ng/ml) | 28 ng/mL | 18000 ng/mL
5 | B5 | 6.8 ng/mL | 8.3 ng/mL | 29.9 ng/mL | 6.5 ng/mL |  |  |  |  |  |  |  |  | 
6 | B6 | 5.4 ng/mL | 3.4 ng/mL | 41.7 ng/mL | 5.5 ng/mL |  |  |  |  |  |  |  |  | 
